Target: gasp1_human GPRASP1 (UniProt Q5JY77)
Sequence (Q5JY77 whole entry): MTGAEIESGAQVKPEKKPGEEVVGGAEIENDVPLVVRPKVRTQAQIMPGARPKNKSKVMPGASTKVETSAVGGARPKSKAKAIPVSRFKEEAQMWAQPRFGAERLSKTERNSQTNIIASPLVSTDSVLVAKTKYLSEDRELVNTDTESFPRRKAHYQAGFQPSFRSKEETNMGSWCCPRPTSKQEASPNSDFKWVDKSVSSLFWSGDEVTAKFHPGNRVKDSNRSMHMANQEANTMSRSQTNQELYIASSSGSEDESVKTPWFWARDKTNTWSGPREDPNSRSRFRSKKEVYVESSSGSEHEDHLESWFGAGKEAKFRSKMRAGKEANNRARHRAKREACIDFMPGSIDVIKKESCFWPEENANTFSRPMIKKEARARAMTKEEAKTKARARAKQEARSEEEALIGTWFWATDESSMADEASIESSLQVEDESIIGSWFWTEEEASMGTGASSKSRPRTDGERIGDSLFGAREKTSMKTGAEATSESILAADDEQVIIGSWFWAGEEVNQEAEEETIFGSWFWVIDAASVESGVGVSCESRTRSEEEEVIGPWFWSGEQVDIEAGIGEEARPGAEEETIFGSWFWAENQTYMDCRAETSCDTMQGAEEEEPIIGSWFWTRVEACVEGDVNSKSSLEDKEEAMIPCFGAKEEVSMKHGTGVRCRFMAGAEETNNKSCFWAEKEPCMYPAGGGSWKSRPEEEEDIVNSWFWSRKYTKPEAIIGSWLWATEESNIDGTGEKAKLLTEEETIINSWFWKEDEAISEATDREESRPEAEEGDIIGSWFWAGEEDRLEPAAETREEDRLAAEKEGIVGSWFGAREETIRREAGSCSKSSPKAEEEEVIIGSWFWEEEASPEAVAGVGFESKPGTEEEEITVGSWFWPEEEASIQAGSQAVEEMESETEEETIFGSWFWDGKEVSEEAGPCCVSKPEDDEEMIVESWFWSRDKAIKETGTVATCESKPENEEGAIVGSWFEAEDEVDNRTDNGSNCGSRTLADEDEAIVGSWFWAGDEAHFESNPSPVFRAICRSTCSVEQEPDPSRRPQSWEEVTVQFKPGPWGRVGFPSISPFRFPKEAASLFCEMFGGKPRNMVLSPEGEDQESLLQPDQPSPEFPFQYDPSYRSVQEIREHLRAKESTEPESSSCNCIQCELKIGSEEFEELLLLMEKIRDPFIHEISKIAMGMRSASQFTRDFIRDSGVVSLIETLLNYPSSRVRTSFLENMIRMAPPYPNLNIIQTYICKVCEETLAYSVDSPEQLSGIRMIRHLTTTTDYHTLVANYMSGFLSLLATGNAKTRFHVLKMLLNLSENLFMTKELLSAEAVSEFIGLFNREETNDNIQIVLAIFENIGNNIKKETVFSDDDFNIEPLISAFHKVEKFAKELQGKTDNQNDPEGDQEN

Sequence of Beta-1 adrenergic receptor (Homo sapiens), P08588 F383A;R384A (P08588 whole entry F383A/R384A): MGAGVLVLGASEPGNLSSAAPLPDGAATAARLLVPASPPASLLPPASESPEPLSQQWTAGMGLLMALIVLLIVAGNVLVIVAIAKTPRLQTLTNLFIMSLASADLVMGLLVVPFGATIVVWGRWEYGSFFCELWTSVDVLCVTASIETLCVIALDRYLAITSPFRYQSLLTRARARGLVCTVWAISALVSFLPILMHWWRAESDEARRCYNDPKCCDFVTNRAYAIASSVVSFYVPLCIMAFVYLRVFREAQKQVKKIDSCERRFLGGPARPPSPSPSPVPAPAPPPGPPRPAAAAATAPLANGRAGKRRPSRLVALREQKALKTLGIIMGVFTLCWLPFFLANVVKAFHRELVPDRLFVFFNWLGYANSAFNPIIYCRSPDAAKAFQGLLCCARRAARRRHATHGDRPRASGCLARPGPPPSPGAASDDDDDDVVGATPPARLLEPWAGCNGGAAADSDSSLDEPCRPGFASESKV

- effect of a mutation on the interaction: decreasing interaction
Substance: Beta-1 adrenergic receptor (Homo sapiens), P08588 F383A;R384A
